Among the data in patent publication US20230037682A1 (published 2023) are Kd values, retold here.

Where two headings read alike, the source gives them in different places.

Experiment [1] deals with CD3 peptide. Description: SPR (Biacore); 25 °C. Background: Surface plasmon resonance follows binding to a sensor surface in real time, without labels.
The target in experiment [2] is CD3 peptide. Description: SPR (Biacore); 25 °C. This is another data set of the same source.

B1: CD3_13 (NOV292) (antibody, V domains shown)
VH: QVQLVESGGGVVQPGRSLRLSCAASGFTFSKNGMHWVRQAPGKGLEWVAMIYYDSSKMYYADTVKGRFTISRDNSKNTLYLQMNSLRAEDTAVYYCASFWWDLDFDHWGQGTMVTVSS
VL: DIVMTQTPLSSPVTLGQPASISCRSSQSLVRSDGTTYFNWYQQRPGQPPRLLIYRVSNRFSGVPDRFSGSGAGTDFTLKISRVEAEDVGVYYCLQSSHFPWTFGGGTKVEIKR
For the molecule B1, in the experiment with CD3 peptide [1], the Kd (usually a measure of binding affinity in units of concentration) stood at 4.59 nM.

B2: CD3_12 (NOV123) (antibody, V domains shown)
VH: QVQLVQSGAEVKKPGASVKVSCKASGYTFTSYYIYWVRQAPGQRLEWMGYIYPGHDAIYYSENFKGRVTITADTSASTAYMELSSLRSEDTAVYYCVRPNTMMAPLAYWGQGTLVTVSS
VL: DVVMTQSPLSLPVTLGQPASISCRSSQSLIYSIGNTYLHWYQQRPGQSPRLLIYRVSNRFSGVPDRFSGSGSGTDFTLKISRVEAEDVGVYYCFQSTHLPYTFGQGTKLEIKR
Turning to B2, the Kd with CD3 peptide [2] was found to be 262 nM.
